In patent publication US20190085311:
Changes are numbered by the printed parent chain. Numbers in names are those of the source.

B1: Reference 2: P94R/D160N/D165A/G167E/K190E/K196T from U.S. Pat. No. 9,267,127 (SEQ ID NO: 52) (protein)
chain: MQAKPQIPKDKSKVAGYIEIPDADIKEPVYPGPATREQLNRGVSFAEENESLDDQNISIAGHTFIDRPNYQFTNLKAAKKGSMVYFKVGNETRKYKMTSIRNVKPTAVEVLDEQKGKDKQLTLITCDDYNEETGVWEKRKIFVATEVK
B2: D160S/K196S + N107W + E106G (protein)
chain: QAKPQIPKDKSKVAGYIEIPDADIKEPVYPGPATPEQLNRGVSFAEGWESLDDQNISIAGHTFIDRPNYQFTNLKAAKKGSMVYFKVGNETRKYKMTSIRSVKPTDVGVLDEQKGKDKQLTLITCDDYNEKTGVWESRKIFVATEVK
B3: D160S/K196S + N107W + G167E (protein)
chain: B2 chain with G47E, G108E
B4: D160S/K196S + N107W + F144L + G167E (protein)
chain: B2 chain with G47E, F85L, G108E
B5: D160S/K196S + G167E (protein)
chain: B2 chain with G47E, W48N, G108E
B6: D160S/K196S + A61E (protein)
chain: B2 chain with A2E, G47E, W48N
B7: D160S/K196S + N107W (protein)
chain: B2 chain with G47E
B8: D160S/K196S + F144L (protein)
chain: B2 chain with G47E, W48N, F85L
B9: D160S/K196S + A61T (protein)
chain: B2 chain with A2T, G47E, W48N
B10: D160S/K196S + N107W + F144L (protein)
chain: B2 chain with G47E, F85L
B11: D160S/K196S + F144L + G167E (protein)
chain: B2 chain with G47E, W48N, F85L, G108E
B12: D160S/K196S + E106G (protein)
chain: B2 chain with W48N

Target: glucose dehydrogenase containing the LPETG motif

Protein	relative apparent “Km” for LPXTG
B1	lower
B2	107%
B3	166%
B4	197%
B5	131%
B6	100%
B7	121%
B8	100%
B9	97%
B10	134%
B11	166%
B12	121%
